Laboratory results as given in paper PMC7413259, “Identification of the viral RNA promoter stem loop A (SLA)-binding site on Zika virus polymerase NS5”.

What was measured:
ZIKV NS5 WT = ZIKV NS5 WT (Zika virus, UniProt A0A024B7W1 2521-3423); assay: fluorescence titration; buffer B1; B1: 50 mM Tris-HCl pH 8.0, 150 mM NaCl, 1 mM MgCl2, 2 mM beta-mercaptoethanol, 10% glycerol, 20 C; B2: same with 100 mM NaCl, 20 C; details: protein: recombinant; tags: N-terminal His6-SUMO, cleaved; label: etheno-A fluorescence; single strand
ZIKV NS5 MTase domain WT = ZIKV NS5 MTase domain WT (Zika virus, UniProt A0A142I5B9 2521-2785); assay: fluorescence anisotropy; buffer B2; B1: 50 mM Tris-HCl pH 8.0, 150 mM NaCl, 1 mM MgCl2, 2 mM beta-mercaptoethanol, 10% glycerol, 20 C; B2: same with 100 mM NaCl, 20 C; details: protein: recombinant; tags: N-terminal His6; label: etheno-A fluorescence; single strand

B1: epsilonA(p-epsilonA)19 20-mer ssRNA (ssRNA)
RNA: AAAAAAAAAAAAAAAAAAAA
modifications: all A etheno-modified (1,N6-ethenoadenosine)
Kd (ZIKV NS5 WT): 500 nM
Kd (ZIKV NS5 MTase domain WT): 910 nM
